These are literature values, as cited in article PMC4303689.

This series has as its target His50 (UniProt position 50, KEGVVHGVATV). The series can be described thus: NMR. To be noted: not stated (the range of values reflects different ionic strengths); free monomeric alpha-synuclein (inferred from context).

Consider alpha-synuclein (Homo sapiens), for which the pKa is 6.5–6.8.
